Assay [1] addresses CD80-mCherry expressed on DG75 cells (UniProt P33681). The assay can be described thus: cell-based or functional assay.
Assay [2] has as its target CD86-mCherry expressed on DG75 cells (UniProt P42081). The assay can be described thus: cell-based or functional assay.
Chain of UniProt P42081 (P42081 24-329): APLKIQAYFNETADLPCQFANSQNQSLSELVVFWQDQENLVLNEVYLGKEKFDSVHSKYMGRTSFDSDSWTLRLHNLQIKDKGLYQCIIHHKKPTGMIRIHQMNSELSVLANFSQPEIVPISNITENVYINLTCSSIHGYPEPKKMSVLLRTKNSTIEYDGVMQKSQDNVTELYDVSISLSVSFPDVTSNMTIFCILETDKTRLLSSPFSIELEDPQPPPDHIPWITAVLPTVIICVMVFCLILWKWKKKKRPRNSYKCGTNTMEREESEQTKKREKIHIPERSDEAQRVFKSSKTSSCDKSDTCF

Chain of UniProt P33681 (P33681 35-288): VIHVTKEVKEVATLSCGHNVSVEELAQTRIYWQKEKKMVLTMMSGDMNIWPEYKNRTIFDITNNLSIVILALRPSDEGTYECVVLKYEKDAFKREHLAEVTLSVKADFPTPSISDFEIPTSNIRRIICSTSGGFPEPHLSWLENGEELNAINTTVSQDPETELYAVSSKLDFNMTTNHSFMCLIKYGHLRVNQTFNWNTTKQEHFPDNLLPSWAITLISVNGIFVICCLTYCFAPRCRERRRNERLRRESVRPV

In the case of “CTLA4 expressed from a CTLA4-P2A-GFP transgene in human T cells (exon 1 cDNA insertion, intron 1 insertion of exons 2-4 with WPRE donor, or lentiviral vector) (from UniProt P16410 36-223) (receptor)”, the transendocytosis, cells edited with the cDNA exon 1 insertion (fold less than unedited cells) in assay [1] and in assay [2] was 2 in each case.

For the origin of these results see patent US20240424023A1.
